Reference: US20240228586

Target: M-L3-IL12 (masked mouse IL-12 whose linker contains 3 repeats of LSGRSDNH) (UniProt Q60837)
Sequence (Q60837 whole entry, looked up): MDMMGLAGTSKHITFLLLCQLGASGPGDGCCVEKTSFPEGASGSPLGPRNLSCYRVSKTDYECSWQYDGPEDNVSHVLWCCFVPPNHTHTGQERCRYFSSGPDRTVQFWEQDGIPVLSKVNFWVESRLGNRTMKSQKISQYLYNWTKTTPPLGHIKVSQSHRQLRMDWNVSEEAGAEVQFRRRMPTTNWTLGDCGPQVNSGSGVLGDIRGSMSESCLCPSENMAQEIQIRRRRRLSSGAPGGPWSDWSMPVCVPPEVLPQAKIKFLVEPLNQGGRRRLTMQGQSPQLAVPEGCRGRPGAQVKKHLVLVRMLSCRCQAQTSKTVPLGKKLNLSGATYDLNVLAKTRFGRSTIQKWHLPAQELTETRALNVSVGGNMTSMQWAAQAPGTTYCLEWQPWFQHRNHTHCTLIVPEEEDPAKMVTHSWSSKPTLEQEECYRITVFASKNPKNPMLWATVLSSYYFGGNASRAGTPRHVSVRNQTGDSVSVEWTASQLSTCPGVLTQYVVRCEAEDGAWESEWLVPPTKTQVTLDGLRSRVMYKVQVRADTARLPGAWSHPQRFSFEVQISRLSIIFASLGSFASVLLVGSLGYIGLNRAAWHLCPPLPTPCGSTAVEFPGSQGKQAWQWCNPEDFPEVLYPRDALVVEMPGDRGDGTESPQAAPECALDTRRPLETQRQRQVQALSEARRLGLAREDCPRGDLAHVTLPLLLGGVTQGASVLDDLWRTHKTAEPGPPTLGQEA

## recombinant human urokinase plasminogen activator
  in vitro cleavage, 30 min at 37° C., SDS-PAGE: Decrease of molecular weight from ˜105 kDa to ˜60 kDa indicates proteolytic cleavage of IL12Rβ1-VP-IL12 and IL12Rβ1-LS-IL12
